Earlier results, collected in paper PMC7140434.

Biological target: emerin (Homo sapiens) (UniProt P50402)
Chain of UniProt P50402 (P50402 whole entry): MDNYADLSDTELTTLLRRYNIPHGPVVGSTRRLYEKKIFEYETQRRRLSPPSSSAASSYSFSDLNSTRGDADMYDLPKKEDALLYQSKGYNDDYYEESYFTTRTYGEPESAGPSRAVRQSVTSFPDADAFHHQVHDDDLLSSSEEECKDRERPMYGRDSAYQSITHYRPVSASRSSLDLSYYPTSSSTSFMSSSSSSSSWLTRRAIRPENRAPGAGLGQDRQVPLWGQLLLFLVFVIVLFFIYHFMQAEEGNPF

- Kd: 7.3 µM
Substance: HDAC3 (from UniProt O15379)
